Source: publication PMC3462190, “A Peptidic Unconjugated GRP78/BiP Ligand Modulates the Unfolded Protein Response and Induces Prostate Cancer Cell Death” (PLoS ONE, 2012)
“Also recorded” adds a separate entry of the source. Where no end group is shown, it is not given here.

Test system: 22Rv.1 xenograft tumor
Assay: 22Rv.1 tumor xenograft study
Assay type: in vivo, athymic nude mice
Conditions: for tumor growth inhibition in vivo: xenografts of single 22Rv.1 clones stably expressing the peptide
Experimental: All animal experiments were performed according to European and German statutory regulations. For generation of xenograft models 5×10^6 LNCaP cells were resuspended in a solution of 50% Matrigel® (BD Bioscience, Heidelberg, Germany) in PBS or 5×10^6 22Rv.1 cells in 100 µl of PBS were subcutaneously injected into both flanks of 6–8 week-old athymic nude mice. Tumor size was measured with a caliper every week. Tumors derived from the injection of stable clones overexpressing the Bag-1 peptide were analyzed over a period of 9 weeks while tumors from cells transfected with the empty expression vector or expressing the N-terminal, the C-terminal and the ΔN-peptide were analyzed over 5 weeks. Tumor size was assessed measuring three perpendicular diameters according to the formula: V = (1/6) [π] (d1d2d3), where π is a mathematic constant and d1, d2 and d3 represent the three spatial dimensions (width, depth and height). Mice were euthanized by cervical dislocation and the tumors removed for further analysis.
Figure 4 The Bag-1 peptide inhibits prostate cancer cell growth in vivo. A. Stable clones of 22Rv.1 cells show reduced cell viability in vitro. Stable clones were seeded in a 96-well plate and the cell number in each well was estimated by measuring the ratio between the wavelength of excitation and emission 560/590 nm using the CellTiter-Blue™ proliferation assay. The bar charts represent the mean of at least four independent experiments ±SD (*p<0.05). B. Determination of the level of the Bag-1 expressed in the 22Rv.1 clones. Cellular extracts of 22v.1 stable clones were subjected to Western blot analysis. An anti-HA antibody was used to detect the peptide and an anti-β-actin antibody for equal loading control. C-D. The Bag-1 peptide reduces 22Rv.1 prostate tumor cell growth in vivo. Six-week old athymic nude mice were injected subcutaneously in both flanks with 5×10^6 cells of each stable clone. Tumor size was measured once per week using a caliper and expressed as tumor volume in mm^3. Shown are (C) the tumor volumes of clones transfected with empty expression vector and (D) clones expressing the Bag-1 peptide. Each point represents the mean volume and standard deviation of at least 5 to 10 tumors. E. Xenografts of stable clones expressing the Bag-1 peptide show increased apoptosis. Five-micron sections of formalin-fixed, paraffin-embedded tumor tissues were subjected to immunohistochemistry. Nuclei are stained blue-purple with hematoxylin while apoptotic cells detected with the TUNEL assay are stained brown. Representative sections of xenografts obtained from each 22Rv.1 stable clone were acquired with an Axioscop microscope (Zeiss). V: stands for empty vector expressing clone and P: peptide expressing clone.
Figure 5 An N-terminal unfolded fragment of the Bag-1 peptide is sufficient to reduce tumor cell growth. A. Schematic diagram of the Bag-1 peptide and its deletion mutants. The ubiquitin-like domain is represented in blue and the BAG domain in red. The numbers refer to the amino acid positions of the different domains. The amino acid residues are numbered following the numbering for Bag-1L. B. Prediction of the secondary structure of the Bag-1 peptide, showing an N-terminal β-hairpin from the ubiquitin-like domain (blue) and a C-terminal α-helix from the BAG domain (red). C. Normalized circular dichroism spectra of the Bag-1 peptides. 30 µM of the Bag-1 peptide were measured in 20 mM KHPO4 buffer, pH 6.8 (black line). Its α-helical content was estimated to be approximately 25% by deconvolution of the spectra (red line). 12 µM of the N-term peptide (green line) and 11 µM of C-term (blue line) were measured under the same conditions. D. ^1H^15N-HSQC NMR spectrum of ^15N-labeled Bag-1 peptide (202–269) in 20 mm KHPO4 buffer, pH 6.8, at 23°C. […] The Hδ and Hε side chain signals of asparagine and glutamine are connected by thin lines. […]

“C-terminal peptide: 28 C-terminal fragment of the Bag-1 peptide (Bag-1L 241–269) (EKIADQLEELNKELTGIQQGFLPKDLQAE; not fully specified)” was tested, and the “tumor growth inhibition in vivo” value was “This effect was not seen”.

For “N-terminal peptide: N-terminal 40 residues of the Bag-1 peptide (Bag-1L 202–241) (TPLSALGIQDGCRVMLIGKKNSPQEEVELKKLKHLEKSVE; not fully specified)”, the “tumor growth inhibition in vivo” value was “reduces tumor growth in vivo; also recorded: growth inhibitory action of the peptides was also confirmed in xenograft models”.

For “ΔUbi peptide: Bag-1 peptide lacking the ubiquitin-like domain portion (Bag-1L 220–269) (KKNSPQEEVELKKLKHLEKSVEKIADQLEELNKELTGIQQGFLPKDLQAE; not fully specified)”, the “tumor growth inhibition in vivo” value was “This effect was not seen”.

B1: Bag-1 peptide: internal sequence of 68 amino acids of Bag-1 (Bag1-L 202–269), HA-tagged, expressed from pcDNA3 (peptide)
chain: TPLSALGIQDGCRVMLIGKKNSPQEEVELKKLKHLEKSVEKIADQLEELNKELTGIQQGFLPKDLQAE
modifications: also: HA tag, end not given here
In the case of B1, the tumor volume (22Rv.1 cells expressing the peptide (P42, P25 and P29), 9 weeks, empty vector: average 1.2 cm^3 in 4–8 weeks) is reported as 0.4 cm^3, the “Tumor weight, clone P25” value (22Rv.1 clone P25, termination 7–9 weeks, mean and SD of 4–10 tumors, vector clones 1.24–1.73 g) is reported as 0.31 ± 0.14 g and the “Tumor weight, clone P29” value (22Rv.1 clone P29, termination 9 weeks, mean and SD of 4–10 tumors, vector clones 1.24–1.73 g) is reported as 0.42 ± 0.17 g. The “Tumor weight, clone P42” value (22Rv.1 clone P42, termination 9 weeks, mean and SD of 4–10 tumors, vector clones 1.24–1.73 g) was 0.38 ± 0.20 g and the tumor condition (22Rv.1 peptide clone 25, mice euthanized earlier than 9 weeks) was “the tumors were necrotic”.
